Measurements reported in US20180119150A1.

Molecular target: FLT3 (human) (UniProt P36888)
Experiment: cell-based or functional assay

Sequence of UniProt P36888 (P36888 27-993): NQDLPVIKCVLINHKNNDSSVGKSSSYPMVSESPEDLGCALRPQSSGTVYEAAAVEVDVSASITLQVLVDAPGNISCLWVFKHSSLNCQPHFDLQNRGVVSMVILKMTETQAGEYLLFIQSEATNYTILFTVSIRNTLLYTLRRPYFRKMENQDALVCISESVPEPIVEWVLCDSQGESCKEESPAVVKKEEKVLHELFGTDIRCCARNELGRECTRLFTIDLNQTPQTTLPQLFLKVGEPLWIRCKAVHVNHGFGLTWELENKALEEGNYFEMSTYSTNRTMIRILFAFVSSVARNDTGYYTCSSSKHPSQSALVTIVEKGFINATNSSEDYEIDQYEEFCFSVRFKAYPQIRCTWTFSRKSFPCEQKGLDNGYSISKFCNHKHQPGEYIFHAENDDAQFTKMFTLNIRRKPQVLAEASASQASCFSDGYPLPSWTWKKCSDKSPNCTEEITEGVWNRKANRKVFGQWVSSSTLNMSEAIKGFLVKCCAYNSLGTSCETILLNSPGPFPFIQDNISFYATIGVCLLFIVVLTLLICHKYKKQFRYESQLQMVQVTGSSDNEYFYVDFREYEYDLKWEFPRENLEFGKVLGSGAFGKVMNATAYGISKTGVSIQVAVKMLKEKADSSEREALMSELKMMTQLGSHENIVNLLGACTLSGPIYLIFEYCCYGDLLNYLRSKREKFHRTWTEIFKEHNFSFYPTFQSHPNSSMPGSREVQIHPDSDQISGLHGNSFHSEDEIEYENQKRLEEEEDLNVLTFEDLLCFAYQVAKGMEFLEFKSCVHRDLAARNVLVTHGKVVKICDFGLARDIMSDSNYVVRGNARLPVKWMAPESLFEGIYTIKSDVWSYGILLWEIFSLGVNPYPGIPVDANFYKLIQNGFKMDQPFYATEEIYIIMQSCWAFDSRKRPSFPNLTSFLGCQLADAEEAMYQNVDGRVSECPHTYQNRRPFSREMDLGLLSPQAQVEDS

| one-hour uptake ratio | Substance |
| --- | --- |
| 5.9% | G7-H2B control nanoparticles |
| 23.6% | FLT3L-conjugated Generation 7 (G7) PAMAM (G7-FLT3L) dendrimers (from UniProt P49771 27-181) (ligand) |
